Results taken from article PMC11818568, “Characterization of Tetrathionate Hydrolase from Acidothermophilic Sulfur-Oxidizing Archaeon Metallosphaera cuprina Ar-4” (International Journal of Molecular Sciences, 2025).

Substrate: O=S(=O)(O)SSS(=O)(=O)O
Experiment: HPLC discontinuous assay, Michaelis-Menten
Format: biochemical, Metallosphaera cuprina
Details: pH 6.0, 95 °C, 1.15 µg enzyme, K2S4O6 varied

B1: TTHMc (tetrathionate hydrolase, Mcup_1281) (Metallosphaera cuprina Ar-4) (protein)
chain: PSITQIVSQVITPIPQPIVRTYDIYNTTYFPYEVKVTYYPGNATSQNLGLPGSWLVTNGGQSHNAVVDTTCTELIQGVSWQQDFAHMAGAALIPLSAPENMLPGSNVMGTRSALVMLTQMVGEPLGVSLADNLLFVEEDSGPGSIFAVNPLNGQVVWYATGLASYAMNNPIVYNGIVYVTVGDVGFNFANFVHYENGQYSAIHRGMAYGAIYAFNASDGILLWMRFTMGEAMPAPAVYDGILAYSDGGGEFVGVNATTGQTLWMDSIPGLFDSMSSVNYYVMPNGTPLFVAGFTSLTEPFGLLVAVNGITGKMVWNASLPSPNKPFNTGMGDVPPAVDQSLGIVVQSTVANAEPNGTVDTMVLAVNATNGHVLWVTNLGRGYTPPAFKGAVPMIYNNTVFVGAPSLGTEFALNISTGRIIWQTRLNGISLPPTAPGGPRGSATIYDNLLWIAGGPNVYVLNPHNGDLLQQYYVGGRFGIVNPVIAGNTMYLTNSYGWVIAIPLYQVFPLFQYYTNS
notes: native enzyme purified from tetrathionate-grown M. cuprina Ar-4 cells (soluble fraction; DEAE, HIC, size exclusion, Q-Sepharose); no tag; SDS band about 54 kDa; no homodimer observed
B1 gave a Km of 350 µM.
